Test results published in patent US20170253633A1 (IMMATICS BIOTECHNOLOGIES, published 2017).

B1: RLSQLEGVNV (peptide)
peptide: RLSQLEGVNV
notes: gene as printed: VP535
B2: FLEEKEQAAL (peptide)
peptide: FLEEKEQAAL
notes: genes: TRIM16, CDRT1, TRIM16L
B3: ILVQVIPVV (peptide)
peptide: ILVQVIPVV
notes: gene: IRF6
B4: GLLKAYSIRTA (peptide)
peptide: GLLKAYSIRTA
notes: gene: KRT7
B5: VLMDDTDPLV (peptide)
peptide: VLMDDTDPLV
notes: gene: PSMC1
B6: LLDVTPKAV (peptide)
peptide: LLDVTPKAV
notes: gene: TJP2
B7: YLEPKLTQV (peptide)
peptide: YLEPKLTQV
notes: gene: PSME4
B8: SLATTLTKI (peptide)
peptide: SLATTLTKI
notes: gene: COPB1
B9: IVAPGTFEV (peptide)
peptide: IVAPGTFEV
notes: gene: ILF2
B10: STTNGGILTV (peptide)
peptide: STTNGGILTV
notes: gene: FYTTD1
B11: ALYPGQLVQL (peptide)
peptide: ALYPGQLVQL
notes: gene: ARHGAP9
B12: RLIDDMVAQA (peptide)
peptide: RLIDDMVAQA
notes: gene: IDH1
B13: SLWEENQAL (peptide)
peptide: SLWEENQAL
notes: gene: LAMA5
B14: GLSEPIFQL (peptide)
peptide: GLSEPIFQL
notes: gene: MFN1
B15: AMASHLTST (peptide)
peptide: AMASHLTST
notes: gene: RBM4
B16: YLDPNQRDL (peptide)
peptide: YLDPNQRDL
notes: gene: ZNF573
B17: ILLRDLPTL (peptide)
peptide: ILLRDLPTL
notes: gene: FAM174B
B18: LLYPTEITV (peptide)
peptide: LLYPTEITV
notes: gene: ITGA3
B19: YLTNEGIQYL (peptide)
peptide: YLTNEGIQYL
notes: genes: RPS10-NUDT3, RPS10
B20: TMIVSLAAV (peptide)
peptide: TMIVSLAAV
notes: gene: ARL6IP1
B21: SIVDFLITA (peptide)
peptide: SIVDFLITA
notes: gene: PPP1R13L
B22: YLAPENGYLMEA (peptide)
peptide: YLAPENGYLMEA
notes: gene: SNRNP70
B23: SLIGGTNFV (peptide)
peptide: SLIGGTNFV
notes: gene: AP1B1
B24: SLATLEGIQL (peptide)
peptide: SLATLEGIQL
notes: gene: ZNF236
B25: RLLDFPTLLV (peptide)
peptide: RLLDFPTLLV
notes: gene: MAP10
B26: SLDSSGFSL (peptide)
peptide: SLDSSGFSL
notes: gene: PARP4
B27: QLAWFDTDL (peptide)
peptide: QLAWFDTDL
notes: gene: CTNNB1
B28: VLFGEITRL (peptide)
peptide: VLFGEITRL
notes: gene: NDUFS2
B29: ALNDEINFL (peptide)
peptide: ALNDEINFL
notes: gene: KRT7
B30: VLANRVAVV (peptide)
peptide: VLANRVAVV
notes: gene: DHRS2
B31: YMLDIFHEVL (peptide)
peptide: YMLDIFHEVL
notes: gene: HAS3
B32: TLFPSKIGV (peptide)
peptide: TLFPSKIGV
notes: genes: MOB1A, MOB1B
B33: YQAPDIDVQL (peptide)
peptide: YQAPDIDVQL
notes: gene: GLTSCR2
B34: ALWDEFNQL (peptide)
peptide: ALWDEFNQL
notes: gene: TBX1
B35: TLIEDDALNGA (peptide)
peptide: TLIEDDALNGA
notes: gene: HPGD
B36: GLAGPVRGV (peptide)
peptide: GLAGPVRGV
notes: genes: SNURF, SNRPB, SNRPN
B37: KLNATNIEL (peptide)
peptide: KLNATNIEL
notes: gene: PSMA5
B38: ALLDEQQVNV (peptide)
peptide: ALLDEQQVNV
notes: gene: ID1
B39: KLPEPPPLA (peptide)
peptide: KLPEPPPLA
notes: gene: ERV3-1
B40: VIADRVVTV (peptide)
peptide: VIADRVVTV
notes: gene: VWA5B1
B41: IITKDLFQV (peptide)
peptide: IITKDLFQV
notes: gene: DYNC1H1
B42: QLQGYLRSV (peptide)
peptide: QLQGYLRSV
notes: gene: RPL6
B43: LLAGLLVGV (peptide)
peptide: LLAGLLVGV
notes: gene: C1orf159
B44: YLDPSLNSL (peptide)
peptide: YLDPSLNSL
notes: gene: CXorf57
B45: QIWDKILSV (peptide)
peptide: QIWDKILSV
notes: gene: DHRS2
B46: SLDEKQNLV (peptide)
peptide: SLDEKQNLV
notes: gene: METTL8
B47: QIDGTLSTI (peptide)
peptide: QIDGTLSTI
notes: genes: FBXO34, CHMP4C, CHMP4B, CHMP4BP1
B48: ILGPQGNTI (peptide)
peptide: ILGPQGNTI
notes: gene: KHDRBS1
B49: GQLDFSEFL (peptide)
peptide: GQLDFSEFL
notes: gene: S100A11
B50: YLAGEAPTL (peptide)
peptide: YLAGEAPTL
notes: gene: VARS
B51: FLIDASQRV (peptide)
peptide: FLIDASQRV
notes: gene: COL6A5
B52: FLGENISNFL (peptide)
peptide: FLGENISNFL
notes: gene: APOL1
B53: IIIPEIQKV (peptide)
peptide: IIIPEIQKV
notes: gene: CSE1L
B54: GLLSQGSPL (peptide)
peptide: GLLSQGSPL
notes: gene: GCLC
B55: GLAQDPKSLQL (peptide)
peptide: GLAQDPKSLQL
notes: gene: TTC28
B56: SLLDFERSL (peptide)
peptide: SLLDFERSL
notes: gene: HPS3
B57: VLMDDTDPL (peptide)
peptide: VLMDDTDPL
notes: gene: PSMC1
B58: ALSSPPPTV (peptide)
peptide: ALSSPPPTV
notes: gene: ZFYVE9
B59: VLFNIDGQGNHV (peptide)
peptide: VLFNIDGQGNHV
notes: gene: GATA3
B60: FLLPLIIVL (peptide)
peptide: FLLPLIIVL
notes: gene: MR1
B61: ILLDTPLFL (peptide)
peptide: ILLDTPLFL
notes: gene: SERHL2
B62: GLDSSVNVQGSVL (peptide)
peptide: GLDSSVNVQGSVL
notes: gene: WTAP
B63: TLVTGLASV (peptide)
peptide: TLVTGLASV
notes: gene: MFN1
B64: ILSAILVHL (peptide)
peptide: ILSAILVHL
notes: gene: MROH2A
B65: QMLELITRL (peptide)
peptide: QMLELITRL
notes: gene: DICER1
B66: TLTSIIVAV (peptide)
peptide: TLTSIIVAV
notes: gene: MROH2A
B67: ILDISRSEV (peptide)
peptide: ILDISRSEV
notes: gene: GPR107

Target: T1, HLA-A*02:01 (human)
T1 construct: MHC monomer first loaded with a UV-sensitive peptide, which is cleaved by UV and exchanged with the test peptide; captured on streptavidin plates; also called peptide-receptive MHC molecules
Assay: UV-ligand exchange + anti-b2m ELISA; +++ = peptide exchange yield >50
From the text: Candidate peptides for T cell based therapies according to the present invention were further tested for their MHC binding capacity (affinity). The individual peptide-MHC complexes were produced by UV-ligand exchange, where a UV-sensitive peptide is cleaved upon UV-irradiation, and exchanged with the peptide of interest as analyzed. Only peptide candidates that can effectively bind and stabilize the peptide-receptive MHC molecules prevent dissociation of the MHC complexes. To determine the yield of the exchange reaction, an ELISA was performed based on the detection of the light chain (β2m) of stabilized MHC complexes. The assay was performed as generally described in Rodenko et al. (Rodenko et al., 2006).
96 well MAXISorp plates (NUNC) were coated over night with 2 ug/ml streptavidin in PBS at room temperature, washed 4× and blocked forth at 37° C. in 2% BSA containing blocking buffer. Refolded HLA-A*02:01/MLA-001 monomers served as standards, covering the range of 15-500 ng/ml. Peptide-MHC monomers of the UV-exchange reaction were diluted 100 fold in blocking buffer. Samples were incubated for 1 h at 37° C., washed four times, incubated with 2 ug/ml HRP conjugated anti-β2m for 1 h at 37° C., washed again and detected with TMB solution that is stopped with […]. Absorption was measured at 450 nm. Candidate peptides that show a high exchange yield (preferably higher than 50%, most preferred higher than 75%) are generally preferred for a generation and production of antibodies or fragments thereof, and/or T cell receptors or fragments thereof, as they show sufficient avidity to the MHC molecules and prevent dissociation of the MHC complexes.

| Binder | peptide exchange yield [%] |
| --- | --- |
| B1 | 50 to 75 |
| B2 | 50 to 75 |
| B3 | 50 to 75 |
| B4 | 50 to 75 |
| B5 | 50 to 75 |
| B6 | 50 to 75 |
| B7 | 50 to 75 |
| B8 | 50 to 75 |
| B9 | 50 to 75 |
| B10 | 50 to 75 |
| B11 | 50 to 75 |
| B12 | 50 to 75 |
| B13 | 50 to 75 |
| B14 | 50 to 75 |
| B15 | 50 to 75 |
| B16 | 50 to 75 |
| B17 | 50 to 75 |
| B18 | 50 to 75 |
| B19 | 50 to 75 |
| B20 | 50 to 75 |
| B21 | 50 to 75 |
| B22 | 50 to 75 |
| B23 | 50 to 75 |

| Binder | peptide exchange yield [%] |
| --- | --- |
| B24 | 50 to 75 |
| B25 | 50 to 75 |
| B26 | 50 to 75 |
| B27 | 50 to 75 |
| B28 | 50 to 75 |
| B29 | 50 to 75 |
| B30 | 50 to 75 |
| B31 | 50 to 75 |
| B32 | 50 to 75 |
| B33 | 50 to 75 |
| B34 | 50 to 75 |
| B35 | 50 to 75 |
| B36 | 50 to 75 |
| B37 | 50 to 75 |
| B38 | 50 to 75 |
| B39 | 50 to 75 |
| B40 | 50 to 75 |
| B41 | 50 to 75 |
| B42 | 50 to 75 |
| B43 | 50 to 75 |
| B44 | 50 to 75 |
| B45 | 50 to 75 |
| B46 | 50 to 75 |

| Binder | peptide exchange yield [%] |
| --- | --- |
| B47 | 50 to 75 |
| B48 | 50 to 75 |
| B49 | 50 to 75 |
| B50 | 50 to 75 |
| B51 | 50 to 75 |
| B52 | 50 to 75 |
| B53 | 50 to 75 |
| B54 | 50 to 75 |
| B55 | 50 to 75 |
| B56 | 50 to 75 |
| B57 | 50 to 75 |
| B58 | 50 to 75 |
| B59 | 50 to 75 |
| B60 | 50 to 75 |
| B61 | 50 to 75 |
| B62 | 50 to 75 |
| B63 | 50 to 75 |
| B64 | 50 to 75 |
| B65 | 50 to 75 |
| B66 | 50 to 75 |
| B67 | 50 to 75 |
